Assay results from PMC9482650, “Quantitative fragmentomics allow affinity mapping of interactomes” (Nature Communications, 2022).

Key:
Test in all cases: holdup assay
Parameters in all cases: key: below the threshold = too weak to quantify, mostly under pKd 3.1 to 4
FRMPD2_1, Q68DX3 = molecular target: FRMPD2_1, Q68DX3
MAGI2_6, Q86UL8 = molecular target: MAGI2_6, Q86UL8
APBA2_1, Q99767 = molecular target: T1, APBA2_1, Q99767
T1 sequence (Q99767 563-664, limits assumed, looked up): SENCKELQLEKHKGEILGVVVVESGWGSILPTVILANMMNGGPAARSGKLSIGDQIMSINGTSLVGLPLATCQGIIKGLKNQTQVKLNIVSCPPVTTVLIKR

LNX1_3, Q8TBB1 = molecular target: LNX1_3, Q8TBB1
Sequence of LNX1_3, Q8TBB1 (Q8TBB1 500-596): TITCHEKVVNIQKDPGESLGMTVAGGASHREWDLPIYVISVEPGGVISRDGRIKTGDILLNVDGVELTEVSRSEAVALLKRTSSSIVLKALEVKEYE

LIN7C, Q9NUP9 = molecular target: T2, LIN7C, Q9NUP9
T2 sequence (Q9NUP9 88-185, limits assumed, looked up): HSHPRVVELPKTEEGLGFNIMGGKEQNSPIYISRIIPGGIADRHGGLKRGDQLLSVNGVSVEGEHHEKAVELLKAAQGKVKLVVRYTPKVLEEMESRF

FRMPD2_2, Q68DX3 = molecular target: FRMPD2_2, Q68DX3
Sequence of FRMPD2_2, Q68DX3 (Q68DX3 944-1038): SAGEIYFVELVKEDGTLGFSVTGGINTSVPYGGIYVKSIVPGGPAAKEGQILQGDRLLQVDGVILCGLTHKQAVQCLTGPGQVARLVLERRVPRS

Inadl_5, Q8NI35 = molecular target: Inadl_5, Q8NI35
Sequence of Inadl_5, Q8NI35 (Q8NI35 673-780): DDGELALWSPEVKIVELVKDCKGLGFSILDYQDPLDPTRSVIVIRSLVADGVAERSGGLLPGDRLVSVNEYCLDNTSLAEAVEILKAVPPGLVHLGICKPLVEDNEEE

NOS1, P29475 = molecular target: NOS1, P29475
Sequence of NOS1, P29475 (P29475 9-101): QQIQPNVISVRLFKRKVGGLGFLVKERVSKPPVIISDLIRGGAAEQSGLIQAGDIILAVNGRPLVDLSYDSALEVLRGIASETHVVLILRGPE

PDZD7_3, Q9H5P4 = molecular target: T3, PDZD7_3, Q9H5P4
T3 sequence (Q9H5P4 857-944, limits assumed, looked up): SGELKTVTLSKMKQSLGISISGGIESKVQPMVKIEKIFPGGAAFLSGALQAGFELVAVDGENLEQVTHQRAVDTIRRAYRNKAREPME

MPDZ_5, O75970 = molecular target: T4, MPDZ_5, O75970
T4 sequence (O75970 695-796, limits assumed, looked up): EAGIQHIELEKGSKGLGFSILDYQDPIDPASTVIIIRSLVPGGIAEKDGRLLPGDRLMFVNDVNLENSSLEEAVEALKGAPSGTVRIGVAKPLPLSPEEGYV

GORASP1, Q9BQQ3 = molecular target: GORASP1, Q9BQQ3
Sequence of GORASP1, Q9BQQ3 (Q9BQQ3 1-208): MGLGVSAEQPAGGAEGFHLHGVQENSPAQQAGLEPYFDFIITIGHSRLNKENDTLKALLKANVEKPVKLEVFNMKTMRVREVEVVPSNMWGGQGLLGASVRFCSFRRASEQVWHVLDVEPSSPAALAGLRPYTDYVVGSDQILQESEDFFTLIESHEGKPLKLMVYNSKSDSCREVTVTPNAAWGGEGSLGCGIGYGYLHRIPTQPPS

DVL3, Q92997 = molecular target: T5, DVL3, Q92997
T5 sequence (Q92997 244-331, limits assumed, looked up): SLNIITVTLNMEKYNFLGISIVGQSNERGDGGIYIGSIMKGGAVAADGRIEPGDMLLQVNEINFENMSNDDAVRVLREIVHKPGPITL

Inadl_1, Q8NI35 = molecular target: Inadl_1, Q8NI35
Sequence of Inadl_1, Q8NI35 (Q8NI35 113-229): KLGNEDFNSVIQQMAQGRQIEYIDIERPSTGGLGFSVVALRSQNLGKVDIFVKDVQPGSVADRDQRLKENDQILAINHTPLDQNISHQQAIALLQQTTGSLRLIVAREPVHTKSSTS

SNTB1, Q13884 = molecular target: T6, SNTB1, Q13884
T6 sequence (Q13884 107-205, limits assumed, looked up): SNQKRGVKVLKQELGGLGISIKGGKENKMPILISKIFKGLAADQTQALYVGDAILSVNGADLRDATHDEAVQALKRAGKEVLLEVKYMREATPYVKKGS

SCRIB_2, Q14160 = molecular target: SCRIB_2, Q14160
Sequence of SCRIB_2, Q14160 (Q14160 857-960): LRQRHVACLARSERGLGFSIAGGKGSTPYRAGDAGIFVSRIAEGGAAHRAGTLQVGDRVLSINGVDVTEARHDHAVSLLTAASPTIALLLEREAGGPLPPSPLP

FRMPD2_3, Q68DX3 = molecular target: FRMPD2_3, Q68DX3
Sequence of FRMPD2_3, Q68DX3 (Q68DX3 1073-1166): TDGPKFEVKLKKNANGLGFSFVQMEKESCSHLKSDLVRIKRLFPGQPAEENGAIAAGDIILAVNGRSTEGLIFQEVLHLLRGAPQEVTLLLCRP

APBA1_2, Q02410 = molecular target: T7, APBA1_2, Q02410
T7 sequence (Q02410 742-832, limits assumed, looked up): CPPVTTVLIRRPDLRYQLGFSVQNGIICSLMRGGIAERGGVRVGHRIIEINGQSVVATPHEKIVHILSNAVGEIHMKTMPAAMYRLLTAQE

GRIP1_7, Q9Y3R0 = molecular target: T8, GRIP1_7, Q9Y3R0
T8 sequence (Q9Y3R0 999-1096, limits assumed, looked up): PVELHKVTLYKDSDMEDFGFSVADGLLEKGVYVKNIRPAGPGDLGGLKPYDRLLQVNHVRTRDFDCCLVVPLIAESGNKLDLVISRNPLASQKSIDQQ

FRMPD1, Q5SYB0 = molecular target: T9, FRMPD1, Q5SYB0
T9 sequence (Q5SYB0 52-145, limits assumed, looked up): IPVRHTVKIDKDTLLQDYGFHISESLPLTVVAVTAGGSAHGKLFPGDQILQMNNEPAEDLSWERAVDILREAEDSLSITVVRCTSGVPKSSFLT

LAP2, Q96RT1 = molecular target: LAP2, Q96RT1
Sequence of LAP2, Q96RT1 (Q96RT1 other isoform, or with tags, fused parts or gaps): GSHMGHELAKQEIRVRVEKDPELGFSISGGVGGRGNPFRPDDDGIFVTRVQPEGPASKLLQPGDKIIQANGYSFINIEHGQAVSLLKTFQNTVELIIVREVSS

CASK, O14936 = molecular target: CASK, O14936
Sequence of CASK, O14936 (O14936 487-570): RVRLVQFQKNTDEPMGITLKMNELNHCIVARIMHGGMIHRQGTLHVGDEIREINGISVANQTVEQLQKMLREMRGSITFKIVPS

DLG4_3, P78352 = molecular target: DLG4_3, P78352
Sequence of DLG4_3, P78352 (P78352 306-403): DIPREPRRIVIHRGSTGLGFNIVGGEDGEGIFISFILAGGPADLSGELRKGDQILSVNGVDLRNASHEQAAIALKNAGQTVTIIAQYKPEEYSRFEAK

GOPC, Q9HD26 = molecular target: GOPC, Q9HD26
DLG1_3, Q12959 = molecular target: DLG1_3, Q12959
Sequence of DLG1_3, Q12959 (Q12959 457-571): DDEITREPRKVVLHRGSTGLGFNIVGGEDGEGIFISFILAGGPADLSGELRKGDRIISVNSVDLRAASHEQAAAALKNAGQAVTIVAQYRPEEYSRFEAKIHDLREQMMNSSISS

SHANK1, Q9Y566 = molecular target: T10, SHANK1, Q9Y566
T10 sequence (Q9Y566 658-767, limits assumed, looked up): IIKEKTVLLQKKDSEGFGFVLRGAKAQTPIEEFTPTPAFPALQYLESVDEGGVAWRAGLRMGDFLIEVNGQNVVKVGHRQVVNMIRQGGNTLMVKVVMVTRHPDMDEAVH

MAGI2_4, Q86UL8 = molecular target: MAGI2_4, Q86UL8
Sequence of MAGI2_4, Q86UL8 (Q86UL8 772-865): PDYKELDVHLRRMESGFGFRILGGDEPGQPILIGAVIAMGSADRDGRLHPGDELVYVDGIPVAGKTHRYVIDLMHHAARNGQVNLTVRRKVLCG

DLG3_3, Q92796 = molecular target: T11, DLG3_3, Q92796
T11 sequence (Q92796 374-475, limits assumed, looked up): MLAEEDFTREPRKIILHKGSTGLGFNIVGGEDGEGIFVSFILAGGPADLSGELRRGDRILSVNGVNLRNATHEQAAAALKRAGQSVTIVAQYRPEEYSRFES

[1] = plain residues with an end cap or a label only (N-terminal biotin on a linker: ahx)
[2] = plain residues with an end cap or a label only (N-terminal biotin on a linker: ado-ado)
[3] = plain residues with an end cap or a label only (N-terminal biotin on a linker: ttds)

Measured: pKd

Sequence of FRMPD2_1, Q68DX3 (Q68DX3 770-861): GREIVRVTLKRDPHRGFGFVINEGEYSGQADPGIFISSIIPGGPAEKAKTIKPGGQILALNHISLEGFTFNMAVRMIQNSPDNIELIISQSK
Sequence of MAGI2_6, Q86UL8 (Q86UL8 1141-1229): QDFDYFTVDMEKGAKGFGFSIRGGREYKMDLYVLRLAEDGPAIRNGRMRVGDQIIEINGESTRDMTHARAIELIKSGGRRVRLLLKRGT

HNAFLSVTTV [PDZRN4, Q6ZMN7]
3.6: GOPC, Q9HD26; [1]
3.54: SNTB1, Q13884; [1]
3.56: DLG4_3, P78352; [1]
3.68: LIN7C, Q9NUP9; [1]
3.71: SCRIB_2, Q14160; [1]
below the threshold: FRMPD2_1, Q68DX3; [1] | MAGI2_6, Q86UL8; [1] | LNX1_3, Q8TBB1; [1] | FRMPD2_2, Q68DX3; [1] | Inadl_5, Q8NI35; [1] | NOS1, P29475; [1] | GORASP1, Q9BQQ3; [1] | DVL3, Q92997; [1] | Inadl_1, Q8NI35; [1] | FRMPD2_3, Q68DX3; [1] | APBA1_2, Q02410; [1] | GRIP1_7, Q9Y3R0; [1] | FRMPD1, Q5SYB0; [1] | LAP2, Q96RT1; [1] | CASK, O14936; [1] | DLG1_3, Q12959; [1] | SHANK1, Q9Y566; [1] | DLG3_3, Q92796; [1]
3.49: MPDZ_5, O75970; [1] | MAGI2_4, Q86UL8; [1]
4.71: PDZD7_3, Q9H5P4; [1]
3.69: APBA2_1, Q99767; [1]

NRKREIFSNF [NHERF2, Q15599]
3.55: MAGI2_6, Q86UL8; [1]
below the threshold: FRMPD2_1, Q68DX3; [1] | APBA2_1, Q99767; [1] | LNX1_3, Q8TBB1; [1] | LIN7C, Q9NUP9; [1] | FRMPD2_2, Q68DX3; [1] | Inadl_5, Q8NI35; [1] | NOS1, P29475; [1] | PDZD7_3, Q9H5P4; [1] | MPDZ_5, O75970; [1] | GORASP1, Q9BQQ3; [1] | DVL3, Q92997; [1] | Inadl_1, Q8NI35; [1] | SNTB1, Q13884; [1] | SCRIB_2, Q14160; [1] | FRMPD2_3, Q68DX3; [1] | APBA1_2, Q02410; [1] | GRIP1_7, Q9Y3R0; [1] | FRMPD1, Q5SYB0; [1] | LAP2, Q96RT1; [1] | CASK, O14936; [1] | DLG4_3, P78352; [1] | GOPC, Q9HD26; [1] | DLG1_3, Q12959; [1] | SHANK1, Q9Y566; [1] | MAGI2_4, Q86UL8; [1] | DLG3_3, Q92796; [1]

PLSPEQPTKL [TRIM50, Q86XT4]
3.82: LIN7C, Q9NUP9; [2]
below the threshold: FRMPD2_1, Q68DX3; [2] | MAGI2_6, Q86UL8; [2] | APBA2_1, Q99767; [2] | LNX1_3, Q8TBB1; [2] | FRMPD2_2, Q68DX3; [2] | Inadl_5, Q8NI35; [2] | NOS1, P29475; [2] | MPDZ_5, O75970; [2] | GORASP1, Q9BQQ3; [2] | DVL3, Q92997; [2] | Inadl_1, Q8NI35; [2] | SNTB1, Q13884; [2] | SCRIB_2, Q14160; [2] | FRMPD2_3, Q68DX3; [2] | GRIP1_7, Q9Y3R0; [2] | FRMPD1, Q5SYB0; [2] | LAP2, Q96RT1; [2] | CASK, O14936; [2] | DLG4_3, P78352; [2] | GOPC, Q9HD26; [2] | DLG1_3, Q12959; [2] | SHANK1, Q9Y566; [2] | MAGI2_4, Q86UL8; [2] | DLG3_3, Q92796; [2]
4.04: PDZD7_3, Q9H5P4; [2]
4.06: APBA1_2, Q02410; [2]

EVVHTPETSV [SLC16A3, O15427]
4.07: LIN7C, Q9NUP9; [3]
below the threshold: FRMPD2_1, Q68DX3; [3] | APBA2_1, Q99767; [3] | LNX1_3, Q8TBB1; [3] | Inadl_5, Q8NI35; [3] | MPDZ_5, O75970; [3] | GORASP1, Q9BQQ3; [3] | DVL3, Q92997; [3] | Inadl_1, Q8NI35; [3] | FRMPD2_3, Q68DX3; [3] | FRMPD1, Q5SYB0; [3] | CASK, O14936; [3] | GOPC, Q9HD26; [3] | SHANK1, Q9Y566; [3]
4.1: DLG1_3, Q12959; [3]
3.94: DLG4_3, P78352; [3]
3.55: MAGI2_4, Q86UL8; [3]
3.71: NOS1, P29475; [3]
4.09: APBA1_2, Q02410; [3]
3.81: LAP2, Q96RT1; [3]
4.76: SNTB1, Q13884; [3]
4.14: MAGI2_6, Q86UL8; [3]
4.28: DLG3_3, Q92796; [3]
3.79: GRIP1_7, Q9Y3R0; [3]
4.45: PDZD7_3, Q9H5P4; [3]
4.5: FRMPD2_2, Q68DX3; [3]
4.48: SCRIB_2, Q14160; [3]
